{"source": "patent US6555340", "molecules": {"B1": {"name": "recombinant bovine EN-RAGE (Extracellular Novel RAGE binding protein), expressed in Sf9 cells from a baculovirus system (ligand)", "chain": "TKLEDHLEGIINIFHQYSVRVGHFDTLNKRELKQLITKELPKTLQNTKDQPTIDKIFQDLDADKDGAVSFEEFVVLVSRVLKTAHIDIHK", "modifications": "radiolabelled with 125-I (Iodobeads) in the radioligand binding assays; unlabelled in the cell activation assays", "notes": "also called 125-I EN-RAGE; radiolabelled EN-RAGE"}, "B2": {"name": "purified S100B from human brain (Calbiochem-Novabiochem) (ligand, UniProt P04271 2-92, looked up)", "chain": "SELEKAMVALIDVFHQYSGREGDKHKLKKSELKELINNELSHFLEEIKEQEVVDKVMETLDNDGDGECDFQEFMAFVAMVTTACHEFFEHE"}, "B3": {"name": "≈23 kDa polypeptide from bovine lung extract, identified as amphoterin (ligand, UniProt P10103 2-215, looked up)", "chain": "GKGDPKKPRGKMSSYAFFVQTCREEHKKKHPDASVNFSEFSKKCSERWKTMSAKEKGKFEDMAKADKARYEREMKTYIPPKGETKKKFKDPNAPKRPPSAFFLFCSEYRPKIKGEHPGLSIGDVAKKLGEMWNNTAADDKQPYEKKAAKLKEKYEKDIAAYRAKGKPDAAKKGVVKAEKSKKKKEEEEDEEDEEDEEEEEDEEDEEEEEDDDDE", "notes": "The identification is cited to Hori et al., 1995"}}, "key": {"[1]": {"biological_target": "RAGE on cultured bovine aortic endothelial cells (BAEC RAGE) (bovine) (UniProt Q28173)", "experiment": "binding to endothelial cells in culture wells"}, "[2]": {"biological_target": "RAGE on macrophages / macrophage-like cultured BV2 cells (MP RAGE) (UniProt Q62151)", "sequence (Q62151 23-402 limits assumed)": "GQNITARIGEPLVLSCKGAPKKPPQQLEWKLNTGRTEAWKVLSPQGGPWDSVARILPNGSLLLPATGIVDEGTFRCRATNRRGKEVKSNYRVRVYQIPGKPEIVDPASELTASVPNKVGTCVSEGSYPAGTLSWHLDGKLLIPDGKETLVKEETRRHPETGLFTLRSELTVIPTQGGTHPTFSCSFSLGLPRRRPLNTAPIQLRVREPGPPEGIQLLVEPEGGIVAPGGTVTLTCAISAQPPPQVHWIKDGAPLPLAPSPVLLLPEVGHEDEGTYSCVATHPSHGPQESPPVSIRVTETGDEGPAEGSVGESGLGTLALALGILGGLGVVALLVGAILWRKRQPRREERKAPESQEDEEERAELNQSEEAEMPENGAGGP", "experiment": "binding to macrophages in culture wells"}, "[3]": {"biological_target": "cellular RAGE on human cells (HUVEC, Molt-4 cells, PBMC, Jurkat cells) (human) (UniProt Q15109)", "sequence (Q15109 23-404)": "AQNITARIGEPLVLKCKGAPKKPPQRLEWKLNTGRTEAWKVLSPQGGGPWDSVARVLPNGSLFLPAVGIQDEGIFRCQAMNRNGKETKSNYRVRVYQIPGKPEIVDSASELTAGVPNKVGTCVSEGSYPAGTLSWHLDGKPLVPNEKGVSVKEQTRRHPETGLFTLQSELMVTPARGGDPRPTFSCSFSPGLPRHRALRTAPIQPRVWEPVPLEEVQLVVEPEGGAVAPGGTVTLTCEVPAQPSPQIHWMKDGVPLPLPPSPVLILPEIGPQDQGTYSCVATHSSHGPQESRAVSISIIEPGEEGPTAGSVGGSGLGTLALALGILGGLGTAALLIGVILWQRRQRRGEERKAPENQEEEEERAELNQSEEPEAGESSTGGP", "experiment": "cell-based or functional assay"}, "[4]": {"biological_target": "purified soluble human RAGE (sRAGE), prepared from a baculovirus expression system (human) (UniProt Q15109)", "sequence (Q15109 23-342)": "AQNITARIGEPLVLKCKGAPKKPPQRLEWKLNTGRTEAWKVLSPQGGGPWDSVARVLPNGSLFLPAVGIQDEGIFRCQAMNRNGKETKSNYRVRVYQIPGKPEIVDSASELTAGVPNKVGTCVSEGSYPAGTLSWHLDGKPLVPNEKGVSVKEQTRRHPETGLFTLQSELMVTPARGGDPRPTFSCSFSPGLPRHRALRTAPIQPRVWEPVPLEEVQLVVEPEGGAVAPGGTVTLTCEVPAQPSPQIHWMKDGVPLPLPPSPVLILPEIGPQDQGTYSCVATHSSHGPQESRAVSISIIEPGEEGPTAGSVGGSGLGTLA", "experiment": "binding to immobilised RAGE in wells"}, "[5]": {"biological_target": "T1, purified soluble human RAGE (sRAGE), prepared from a baculovirus expression system (human, UniProt Q15109 23-342)", "T1 construct": "extracellular domain; Adsorbed to plastic wells at 5 µg/well or to Affi-gel resin; also called soluble RAGE; human soluble RAGE", "T1 sequence (Q15109 23-342)": "as above", "experiment": "radioligand binding, 125-I EN-RAGE ± 50-fold unlabelled EN-RAGE on immobilised human sRAGE", "protocol": "Radioligand binding assays were performed employing the indicated concentration of ^125-I EN-RAGE in the presence or absence of excess unlabelled EN-RAGE (50-fold). […] Where indicated, radiolabelled EN-RAGE (100 nM) was incubated with the indicated amount of excess sRAGE two hours prior to binding assay, or wells were preincubated for two hours with the indicated concentration of rabbit nonimmune IgG, or polyclonal monospecific rabbit anti-EN-RAGE IgG or anti-RAGE IgG prior to binding assay and results reported as % maximal specific binding±SD of the mean. These experiments were performed at least five times with analogous results.\nPurified EN-RAGE was radiolabelled using ^125-I and Iodobeads (Pierce) to a specific activity of approximately 5,000 cpm/ng. Radioligand binding assays were performed in 96-well dishes to which had been adsorbed either purified human RAGE (5 µg/well) or bovine aortic endothelial cells. In the former case, after adsorption of human soluble RAGE to the plastic dish in carbonate/bicarbonate buffer (pH 9.3) overnight, wells were then washed with PBS containing Tween 20 (0.05%). Unoccupied binding sites on the plastic wells were blocked by incubation with PBS containing calcium/magnesium and bovine serum albumin (1%) for two hours at 37° C. […] Solution was then aspirated from the wells and counted in a gamma counter (LKB, Gaithersburg, Md.). […]"}, "[6]": {"biological_target": "T2, RAGE on cultured bovine aortic endothelial cells (BAEC RAGE) (bovine, UniProt Q28173 23-416)", "T2 construct": "whole, on cells; also called BAECs; endothelial (EC) RAGE", "T2 sequence (looked up)": "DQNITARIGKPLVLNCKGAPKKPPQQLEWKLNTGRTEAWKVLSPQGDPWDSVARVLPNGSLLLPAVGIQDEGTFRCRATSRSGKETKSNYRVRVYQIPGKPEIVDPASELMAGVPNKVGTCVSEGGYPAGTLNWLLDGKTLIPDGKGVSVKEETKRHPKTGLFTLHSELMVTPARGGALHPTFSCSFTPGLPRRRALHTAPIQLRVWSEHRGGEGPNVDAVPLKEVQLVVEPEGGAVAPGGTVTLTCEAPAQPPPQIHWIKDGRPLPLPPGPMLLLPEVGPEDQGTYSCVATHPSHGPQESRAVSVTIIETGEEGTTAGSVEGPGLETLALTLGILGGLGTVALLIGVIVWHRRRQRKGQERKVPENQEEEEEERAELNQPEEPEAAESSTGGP", "experiment": "radioligand binding on cultured bovine aortic endothelial cells", "protocol": "These experiments were performed at least five times with analogous results.\nPurified EN-RAGE was radiolabelled using ^125-I and Iodobeads (Pierce) to a specific activity of approximately 5,000 cpm/ng. Radioligand binding assays were performed in 96-well dishes to which had been adsorbed either purified human RAGE (5 µg/well) or bovine aortic endothelial cells. In the former case, after adsorption of human soluble RAGE to the plastic dish in carbonate/bicarbonate buffer (pH 9.3) overnight, wells were then washed with PBS containing Tween 20 (0.05%). Unoccupied binding sites on the plastic wells were blocked by incubation with PBS containing calcium/magnesium and bovine serum albumin (1%) for two hours at 37° C. […] Solution was then aspirated from the wells and counted in a gamma counter (LKB, Gaithersburg, Md.). […] Equilibrium binding data were analyzed according to the equation of Klotz and Hunston (Klotz and Hunston, 1984): B=nKA/1+KA, where B=specifically bound ligand (total binding, wells incubated with tracer alone, minus nonspecific binding, wells incubated with tracer in the presence of excess unlabelled material), n=sites/cell, K=the […] constant, and A=free ligand concentration) using nonlinear least-squares analysis (Prism; San Diego, Calif.). […]"}, "[7]": {"biological_target": "cellular RAGE on human cells (HUVEC, Molt-4 cells, PBMC, Jurkat cells) (human, UniProt Q15109 23-404)", "sequence (Q15109 23-404)": "as the sequence (Q15109 23-404) above", "experiment": "cell-based or functional assay"}, "[8]": {"biological_target": "T1, purified soluble human RAGE (sRAGE), …", "experiment": "elution from RAGE-Affi-gel resin; radioligand binding assay", "text": "Isolation and purification of EN-RAGE. Bovine lung acetone powder (SIGMA@) was subjected to solubilization in buffer containing tris (0.02M, pH 7.4); NaCl (0.15M); octyl-β-glucoside (1%); and protease inhibitors (PMSF and aprotinin). After serial chromatography onto SP sepharose (Pharmacia LKB®), and affi-gel 10 resin (BIO-RAD®) to which had been adsorbed purified soluble human RAGE (prepared from a baculovirus expression system), RAGE-binding proteins were identified based on a screening assay employing immobilized column fraction (Nunc Maxisorp dishes) (NUNC®) and ^125-I-labelled sRAGE as above. After elution with heparin-containing buffer (1 mg/ml), positive fractions were identified. RAGE-binding proteins were subjected to sequence analysis."}}}
{"molecule": "≈12 kDa RAGE-binding polypeptide isolated and purified from bovine lung extract, called EN-RAGE (from UniProt P79105 2-51) (ligand)", "values": [{"measurement": "Kd", "setting": "[1]", "value": 75, "unit": "nM"}, {"measurement": "Kd", "setting": "[2]", "value": 75, "unit": "nM"}, {"measurement": "adhesion of Molt-4 cells to cultured ECs", "setting": "[3]", "value": 7, "unit": "fold"}, {"measurement": "expression of cell-surface VCAM-1 on cultured ECs", "setting": "[3]", "value": 4.3, "unit": "fold"}, {"measurement": "Kd", "setting": "[4]", "value": 75, "unit": "nM"}]}
{"molecule": "B1", "values": [{"measurement": "Kd", "setting": "[5]", "value": "~91", "unit": "nM"}, {"measurement": "Kd", "setting": "[6]", "value": "~90.3", "unit": "nM"}, {"measurement": "nuclear NF-kB in HUVEC (EMSA, densitometry)", "setting": "[7]", "value": 5, "unit": "fold"}]}
{"molecule": "B2", "values": [{"measurement": "nuclear translocation of NF-kB in HUVEC (EMSA)", "setting": "[7]", "value": "~13.9", "unit": "fold"}]}
{"molecule": "B3", "values": [{"measurement": "binding result", "setting": "[8]", "value": "binds"}]}
